# T1: Human angiopoietin-2 (ANG-2) (human, UniProt O15123 19-496, limits assumed)
# T1 construct: Bought (R&D Systems Cat. No. 623-AN) or produced in house; also called ANGPT2; huAngiopoietin-2
# T1 sequence: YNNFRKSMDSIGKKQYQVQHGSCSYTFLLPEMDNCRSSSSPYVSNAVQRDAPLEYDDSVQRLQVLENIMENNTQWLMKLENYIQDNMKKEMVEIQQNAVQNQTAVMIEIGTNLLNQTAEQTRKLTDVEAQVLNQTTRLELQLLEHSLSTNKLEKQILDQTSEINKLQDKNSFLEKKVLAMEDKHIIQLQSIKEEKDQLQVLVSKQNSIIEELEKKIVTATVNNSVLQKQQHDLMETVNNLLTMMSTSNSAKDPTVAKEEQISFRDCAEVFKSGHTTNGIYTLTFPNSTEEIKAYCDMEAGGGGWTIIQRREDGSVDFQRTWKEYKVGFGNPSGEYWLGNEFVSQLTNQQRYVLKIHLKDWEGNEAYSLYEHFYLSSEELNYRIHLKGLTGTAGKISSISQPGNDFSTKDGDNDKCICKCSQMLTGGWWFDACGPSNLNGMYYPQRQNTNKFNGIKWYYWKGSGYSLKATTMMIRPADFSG
# Biological target: T1, Human angiopoietin-2 (ANG-2)
# Assay: ANG2/Tie2 receptor interaction ELISA (Experiment A): antibody dilutions pre-incubated with 0.2 ug/ml huAngiopoietin-2, coated human Tie2, bound ANG-2 detected
# Experimental: Blocking of human ANG-2/human Tie2 interaction was shown by receptor interaction ELISA. 384-well Maxisorp plates (Nunc) were coated with 0.5 μg/ml human Tie2 (R&D Systems, UK, Cat. No. 313-TI or in house produced material) for 2 h at room temperature and blocked with PBS supplemented with 0.2% Tween-20 and 2% BSA (Roche Diagnostics GmbH, DE) for 1 h at room temperature under shaking. In the meantime, Dilutions of purified antibodies in PBS were incubated together with 0.2 μg/ml huAngiopoietin-1/2 (R&D Systems #923-AN/CF, R&D Systems, UK, Cat. No. 623-AN or in house produced material) for 1 hour at RT. After washing a mixture of 0.5 μg/ml biotinylated anti-Angiopoietin-1/2 clone (R&D Systems #BAF923, BAM0981 R&D Systems, UK) and 1:3000 diluted streptavidin HRP (Roche Diagnostics GmbH, DE, Cat. No. 11089153001) was added for 1 h. Thereafter the plates were washed 6 times with PBST. Plates were developed with freshly prepared ABTS reagent (Roche Diagnostics GmbH, DE, buffer #204 530 001, tablets #11 112 422 001) for 30 minutes at RT. Absorbance was measured at 405 nm.
binder,measurement,value
"<ANG-2>Ang2i_LC06 (antibody, V domains shown, also called anti-ANG2 antibody) VH: not shown VL: QPGLTQPPSVSVAPGQTARITCGGNNIGSKSVHWYQQKPGQAPVLVVYDDSDRPSGIPERFSGSNSGNTATLTISRVEAGDEADYYCQVWDSSSDHYVFGTGTKVTVLG",IC50,100 pM
